Results from the nanobody polyreactivity screen of Harvey et al. (2022).

Test: yeast display, Sf9 membrane polyspecificity reagent, FACS + sequencing; frameworks hold sequencing errors
Procedure, shortened: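 A nanobody's polyreactivity label depends on the gate it was sorted from. Yeast display cells were stained with 10% biotinylated, detergent-solubilized Sf9 membrane reagent for 1 hour at 4 °C, enriched on streptavidin microbeads and sorted by FACS. The low and high (top ~1%) gates were set on anti-HA fluorescence for expression and streptavidin fluorescence for reagent binding.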

Sequence	polyreactivity (PSR sort gate)
QVQLVESGGGLVQAGGSLRLSCAASGIILYPYFMGWYIQAPGKERELVAAISYSGGSTYYADSVKGRFTISGDNAKNTVYLQMNSLKPEDTAVYYCAAVPVTSQTKYGYWGQGTQVTVSS	high polyreactivity
QVQLVESGGGLVQAGGSLRLSCAASGIISIFIVMGGYRQAPGKERELVASITGRGGSTFYADSVKGRFTISRDNAKNTVYLQMNSLKPEDTAVYYCATDTGYTYPVTGLYDYWGQGTQVTVSS	low polyreactivity
QVQLVESGGGLVQAGGSLRLSCAASGIISRVYAMGWYRLAPGKERELVAAISGSGGTTYYADSVKGRFTISRDNAKNTVYLLMNSLKPEDTAVYYCAARYKALYDYWGQGSQVTVSS	high polyreactivity
QVQLVESGGGLVQAGGSLRLSCAASGIISSVYAMGWYRQARGKERELVAAISGSGGSTYYADSVKGRFTISRDNAKNTVYLQMNSLKPEDTAVYYCAKGYQYQGNSYGYWGQGTQVTVSS	low polyreactivity
QVQLVESGGGLVQAGGSLRLSCAASGIISSYYAMGWYRQAPGKERELVAAISKSGGSTDYADSVKGRFTISRDNAKNTVYLQMNSLKPEDTAVYYCAADAYWSYSTRYWFAYDYWGQGTQVTVSS	low polyreactivity
QVQLVESGGGLVQAGGSLRLSCAASGIISYVYAMGWYRQAPGKERELVAAINWSGGNTYYADSVKGRFTISRDNAKNTVYLQMNSLKPEDTAVYYCAARAVLKSWAYYYWGQGTQVTVSS	high polyreactivity
QVQLVESGGGLVQAGGSLRLSCAASGILLFNAMGWYRQAPGKERELVAPINSGGSTNYADSVKGRFTISRDNAKNTVYLQMKSLKPDDTAVYYCGKDTPFTLRVWAEGGMDYWGEGTQVTVSS	low polyreactivity
QVQLVESGGGLVQAGGSLRLSCAASGILYYYAMGWYRQAPGKERELVAAITSGGSTNYADSVKGRFTISRDNAKNTVYLQMNSLKPEDTAVYYCNARRWWVIRDYWGQGTQVTVSS	high polyreactivity
QVQLVESGGGLVQAGGSLRLSCAASGINFIVNPMGWYRQAPGKEREFVATISANSDGTYYADSVKGRFTISRDNAKNTVYLQMNSLKPEDTAVYYWGQGTQVTVSS	low polyreactivity
QVQLVESGGGLVQAGGSLRLSCAASGINFQRNDMGWYRQAPGKERELVANIRDGGITYADSVKGRFTISRDNAKNTVYLQMNSLKPEDTAVYYCARDDTSPGYGDQSSNAAYYYWGQGTQVTVSS	low polyreactivity
QVQLVESGGGLVQAGGSLRLSCAASGINFSYYAMGWYRQAPGKERELVAAIRENGGSTYYADSVKGRFTISRDNAKNTVYLQMNSLKPEDTAVYYCAVDTTYYAGYEYDYWGQGTQVTVSS	low polyreactivity
QVQLVESGGGLVQAGGSLRLSCAASGINFWNYAMGWYRQAPGKERELVAAISSSSGRTYYADSVKGRFTISRDNAKNTVYLQMNSLKPEDTAVYYCAARRSFARRFKNSMEYWGQGTQVTVSS	high polyreactivity
QVQLVESGGGLVQAGGSLRLSCAASGINYDYYTMGWYRQAPGKERELVASINFSGGSTYYADSVKGRFTISRDNAKNTVYLQMNSLKPEDTAVYYCAAVSVSFWGGGRYYYWGQGTQVTVSS	high polyreactivity
QVQLVESGGGLVQAGGSLRLSCAASGISFITYVMGWYRQAPGKERELVAAISLRGGRTSYADSVKGRFTISRDNAKNTVYLQMNSLKPEDTAVYYCAARAYYTRYDYWGQGTQVTVSS	high polyreactivity
QVQLVESGGGLVQAGGSLRLSCAASGISFLDNALGWYRQATGKERELVAAYADSVKGRFTISRDNAKNTVYLQMNSLKPEDTAVYYCNAGWIRNYGFSLVTYDYWGQGTQVTVSS	low polyreactivity
QVQLVESGGGLVQAGGSLRLSCAASGISFSANAMGWYRQAPGKEREWVAAISASGGSTRYADSVKGRFTISRDNAKNTVYLQMNSLKPEDTAVYYCATRRTSRSKWRHYWGQGTQVTVSS	high polyreactivity

Sequence	polyreactivity (PSR sort gate)
QVQLVESGGGLVQAGGSLRLSCAASGISFVYYAMGWYRQAPGKERELVAAITSDGGSTYYADSVKGRFTISRDNAKNTVYLQMNSLKPEDTAVYYCAAEWTSWSWWYGWYEFDYWGQGTQVTVSS	high polyreactivity
QVQLVESGGGLVQAGGSLRLSCAASGITFADNAMGWYRQAPGKERELVARISRGGRTNYADSVKGRFTISRDNAKNTVYLQMNSLKPEDTAVYYCAADKSSYEYYWGQGTQVTVSS	high polyreactivity
QVQLVESGGGLVQAGGSLRLSCAASGITFAIYDMGWYRQAPGKERELVAVISGRGGSTYYADSVKGRFTISRDNAKNTVYLQMNSLKPEDTAVYYCAARGEASIFAGYDYWGQGTQVTVSS	low polyreactivity
QVQLVESGGGLVQAGGSLRLSCAASGITFANYAMGWYRQAPGKERELVAAISWSDTSTYADSVKGRFTISRDNAKNTVYLQMNSLKPEDTAVYYCAADYHTPSSFAPIELYDYWGQGTQVTVSS	low polyreactivity
QVQLVESGGGLVQAGGSLRLSCAASGITFAYYAMGWYRQAPGKERELVAAISRSGGGTYYADSVKGRFTISRDNAKNTVYLQMNSLKPEDTAVYYCNKDYPYYNSGPWAYKFDYWGQGTQVTVSS	high polyreactivity
QVQLVESGGGLVQAGGSLRLSCAASGITFAYYVMGWYRQAPGKERELVATITGRGGSTSYADSVKGRFTISRDNEKNPVYLQMNSLKPEETAVYYCATGRYSVADNYWGQGTQVTVSS	high polyreactivity
QVQLVESGGGLVQAGGSLRLSCAASGITFDDYVMGWYRQAPGKERELVAAITRSGGRTYYADSVKGRFTISRDNAKNTVYLQMNSLKPEDTAVYYCAARHRDNRFDYWGQGTQVTVSS	high polyreactivity
QVQLVESGGGLVQAGGSLRLSCAASGITFDGYAMGWYRQAPGKERELVAAITYSGGRTYYADSVKGRFTISRDNAKNTVYLQMNCLKPDDTAVYYCAVVSRRLYEYDYWGQGTQVTVSS	high polyreactivity
QVQLVESGGGLVQAGGSLRLSCAASGITFDHSAMGWYRQAPGKEREFVAAIDDIGGDTYYADSVKGRFTISRDNAKNTVYLQMNSLKPEDTAVDYCAADYGYYSRFYYWGQGTQVTVSS	low polyreactivity
QVQLVESGGGLVQAGGSLRLSCAASGITFDKYAMGWYRQAPGKERELVAAISWGGGRTYYADSVKGRFTISRDNAKNTVYLQMNSLKPEDTAVYYCATSHGLYTRWYDYWGQGTQVTVSS	high polyreactivity
QVQLVESGGGLVQAGGSLRLSCAASGITFDLYDMGWYRQAPGKERELVAAITDADSTYYADSVKGRFTISRDNAKNTVYLQMNSLKPEDTAVYYCAADFFYSVYSGHYDYWGQGTQVTVSS	low polyreactivity
QVQLVESGGGLVQAGGSLRLSCAASGITFDRYVMGWYRQAPGKERELVAAISWTGDSTYYADSVKGRFTISRDNAKNTVYLQMNSQKPEDTAVYYCAAEDLWYGYNYWGQGTQVTVSS	high polyreactivity
QVQLVESGGGLVQAGGSLRLSCAASGITFDYNAMGWYRQAPGKERELVADISASGDSTYYADSVKGRFTISRDNAKNTVYLQMNSLKPEDTAVYYCNTAYWYSWGYDYWGQGTQVTVSS	low polyreactivity
QVQLVESGGGLVQAGGSLRLSCAASGITFDYYAMGWYRQAPRKERELVAAITGGGSTNYADSVKGRFTISRDNAKNTVYLQMNSLIPEDTAVYFCNALTRYRYQYGYLGGTGYNYWGHGTQVTVSS	low polyreactivity
QVQLVESGGGLVQAGGSLRLSCAASGITFEDNAMGWYRQAPGKERELVATISDGGRTYYADSVKGRFTISRDNAKNTVYIQMNSLKPEDTAVYYCAAGYPYYHVYGYGYWGQGTQVTVSS	low polyreactivity
QVQLVESGGGLVQAGGSLRLSCAASGITFEGYALGWYRQAPGKERELVAAIRSSGTSTYYADSVKGRFTISRDNAKNTVYLQMNSLKPEDTAVYYCNRARSSSRYDYWGQGTQVTVSS	low polyreactivity
